From article PMC2234471 (The Journal of General Physiology, 2003) come the findings set out here.

This experiment addresses purified recombinant vertebrate CaM ( ("vertebrate"), UniProt P0DP23 1-149). In words: native gel or EMSA. Background: In EMSA bound probe runs differently from free probe, usually more slowly.

SIRAVCVMRFLVSKRKFKESLR [IQ2 peptide of KCNQ2 (508–530)]: the binding result is listed as “binds”.
As for AIRAVRILQFRLYKKKFKETLR [IQ2 peptide of KCNQ3 (481–503)], the binding result was “binds”.
